Source: paper PMC7659708, “Genetically encoded live-cell sensor for tyrosinated microtubules” (The Journal of Cell Biology, 2020)
Several values for one entry are separate records, joined by “and”; a condition that tells them apart may be missing. Identical values can stand only once. Where no end group is shown, it is not given here. The star is where a group is joined. Biotin = O=C1N[C@H]2[C@H](CS[C@H]2CCCCC(=O)*)N1

How the values were obtained:
Conditions in all cases: both partners purified
[1] = target: T1, biotin-TUBA1A 440-450 (human); assay: SPR; steady-state binding assay, Biacore-T200; biotinylated peptides immobilized on a streptavidin (SA) sensor chip at 100-300 response units; A1aY1 titrated from 0.031 to 200 µM; 1x HBS-P+ (10 mM Hepes, 150 mM NaCl, 0.05% surfactant P20), 30 µl/min; 1:1 binding considered, one site total fit
T1 construct: C-terminal tail of human alpha-tubulin TUBA1A, amino acids 440-450, without the terminal tyrosine (detyrosinated); source: synthetic peptide (Thermo Fisher Scientific)
T1 peptide: Biotin-VEGEGEEEGEE

[2] = target: T2, biotin-Tba-1 437-449 (C. elegans); assay: as above
T2 construct: C-terminal tail of C. elegans alpha-tubulin Tba-1, amino acids 437-449; source: synthetic peptide (LifeTein)
T2 peptide: Biotin-SNEGGNEEEGEEY

[3] = target: T3, biotin-TUBA1A 440-451 (human); assay: as above
T3 construct: C-terminal tail of human alpha-tubulin TUBA1A, amino acids 440-451, tyrosinated; source: synthetic peptide (Thermo Fisher Scientific)
T3 peptide: Biotin-VEGEGEEEGEEY

[4] = target: T4, biotin-Tub84B 438-450 (Drosophila); assay: as above
T4 construct: C-terminal tail of Drosophila alpha-tubulin Tub84B; they would span 439-450 if the last residue is 450; source: synthetic peptide (LifeTein)
T4 peptide: Biotin-SGDGEGEGAEEY

[5] = target: T5, biotin-TUBA1A 440-451-[E]445 (human); assay: as above
T5 construct: C-terminal tail of human alpha-tubulin TUBA1A, amino acids 440-451, printed VEGEG[E]EEGEEY with [E] the monoglutamylated residue 445; source: synthetic peptide (Thermo Fisher Scientific)
T5 peptide: Biotin-VEGEGE(Glu)EEGEEY

[6] = target: T6, 13C-15N isotope-labeled A1aY1 protein (thrombin-cleaved) (13C, 15N isotope-labeled); assay: NMR titration; 1H-15N HSQC of 13C,15N-labeled A1aY1 with nonbiotinylated peptides added at 0.5 to 7 equivalents (Hs_TUBA1A) or 1 to 4 equivalents (Hs_TUBA1A-ΔY); 25°C
T6 construct: A1aY1, an SSO7D mutant selected from a combinatorial yeast display library; source: E. coli Rosetta (DE3) grown in M9 media, purified (Ni-NTA, SEC, thrombin cleavage, SEC); not shown: His6, N-terminal, cleaved
T6 chain: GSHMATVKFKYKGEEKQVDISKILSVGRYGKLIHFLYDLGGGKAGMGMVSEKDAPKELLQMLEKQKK

B1: A1aY1 binder (designed binder)
chain: MATVKFKYKGEEKQVDISKILSVGRYGKLIHFLYDLGGGKAGMGMVSEKDAPKELLQMLEKQKK
notes: A1aY1, an SSO7D mutant selected from a combinatorial yeast display library; (His6, thrombin site, A1aY1); Protein used in the SPR steady-state titrations; The results say 'without any tags'; the methods describe the stored protein as 9.3 kD, which is the size with His6 and thrombin site, and tell of thrombin cleavage only for the NMR sample; also called tyrosination sensor; source: E. coli …
Kd [1]: > 60 µM | Kd [2]: 1 ± 0.2 µM | Kd [3]: 1.6 ± 0.3 µM | Kd [4]: 4.1 µM and 4 µM | Kd [5]: 13.6 ± 4.5 µM

B2: nonbiotinylated Hs_TUBA1A peptide (peptide)
peptide: VEGEGEEEGEEY
notes: C-terminal tail of human alpha-tubulin TUBA1A, amino acids 440-451, tyrosinated, without biotin; also called tyrosinated peptide; α-tubulin CTT peptide; source: synthetic peptide (LifeTein)
binding result [6]: binds
